No end group written: not given here. *: point of attachment. Acm = CC(=O)NC* Some results are limits rather than exact numbers.

Here are results for three molecules from PMC3723849 (PLoS ONE, 2013).

For experiment [1], the target named is T1, His-tagged PSMA (PSMA-His6), soluble ectodomain of prostate-specific membrane antigen (human, UniProt Q04609 44-750).
T1 construct: prostate-specific membrane antigen (PSMA), human, soluble ectodomain; also called soluble PSMA; poly-histidine tagged PSMA; source: bought: R&D Systems
T1 sequence (Q04609 44-750): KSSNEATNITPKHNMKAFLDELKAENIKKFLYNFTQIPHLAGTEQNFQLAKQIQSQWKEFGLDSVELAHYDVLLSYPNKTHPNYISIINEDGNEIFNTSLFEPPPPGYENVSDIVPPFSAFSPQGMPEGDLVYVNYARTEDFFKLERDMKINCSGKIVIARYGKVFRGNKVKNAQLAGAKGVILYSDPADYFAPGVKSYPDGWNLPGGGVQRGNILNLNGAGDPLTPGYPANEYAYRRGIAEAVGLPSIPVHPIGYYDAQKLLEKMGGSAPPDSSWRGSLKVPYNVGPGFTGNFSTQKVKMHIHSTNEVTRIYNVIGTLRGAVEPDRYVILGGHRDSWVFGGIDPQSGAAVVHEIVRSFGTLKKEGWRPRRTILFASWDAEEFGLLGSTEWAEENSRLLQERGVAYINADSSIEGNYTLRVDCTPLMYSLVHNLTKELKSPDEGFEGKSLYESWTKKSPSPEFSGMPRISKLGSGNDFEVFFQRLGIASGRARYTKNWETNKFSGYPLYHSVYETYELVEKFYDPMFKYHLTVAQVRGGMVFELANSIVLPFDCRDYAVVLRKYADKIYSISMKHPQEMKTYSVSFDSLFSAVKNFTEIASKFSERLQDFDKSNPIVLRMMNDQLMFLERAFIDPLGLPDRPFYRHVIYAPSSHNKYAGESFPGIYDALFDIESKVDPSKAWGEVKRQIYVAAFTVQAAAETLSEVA
Briefly: immunostaining of cells or tissue; competition: LNCaP cells pre-incubated with soluble PSMA-His6 (100 nM, 2 h, 37°C) before the phage clones were added; loss of phage staining read by confocal microscopy (rfu in ten cells). The note with it: both partners purified.

For experiment [2], the target named is T1, His-tagged PSMA (PSMA-His6), soluble …. Briefly: AlphaScreen or HTRF; competition: 563-biotin on streptavidin donor beads, PSMA-His6 on nickel chelate acceptor beads, unlabeled peptide at various concentrations; ambient temperature; 25 mM HEPES, 100 mM NaCl, pH 7.4; IC50 used to approximate KD. The settings on record: both partners purified. (In general: In Alpha technology, singlet oxygen from a donor bead excites a nearby acceptor bead.)

B1: Phage clone 2 (round 2 of panning) (peptide)
chain: GTAVASRVYSLHSLM
notes: source: phage clone from the fUSE5 15-mer library, amplified in E. coli K91BluKan; not shown: bacteriophage coat protein (fd phage, fUSE5 library), C-terminal, kept
Consider B1, for which the binding result in experiment [1] is recorded as “binds”.

B2: Peptide 565 (peptide)
peptide: ARMFLLFLMRC(Acm)IGC(Acm)Y
modifications: not fully specified
notes: 15-mer from phage clone C; Made on Rink amide resin, so a C-terminal amide is to be expected (surmised); source: synthetic peptide (HPLC purified)
As a reminder, the IC50 is the concentration that gives 50% inhibition. Low readings indicate greater potency in that assay, high ones weaker potency in that assay. B2 showed a concentration for half-maximal inhibition (IC50) in experiment [2] of over 4830 nM.

B3: Peptide 564 (peptide)
peptide: LSFFSC(Acm)WLRRSFSLT
notes: 15-mer from phage clone G; Made on Rink amide resin, so a C-terminal amide is to be expected (surmised); source: synthetic peptide (HPLC purified)
Turning to B3, the IC50 in experiment [2] stood at 1720 nM.
